In publication PMC2973827:

Biological target: SARS-CoV nsp12 (RdRp) (SARS-coronavirus, UniProt P0C6X7 4370-5301)
Assay: EMSA; no Zn2+
Conditions: protein: recombinant; tags: C-terminal His6 (plasmid pASK3-Ub-nsp12-CHis6, ubiquitin fusion vector); label: 5' 32P

B1: SAV557R/SAV481R primed template duplex (dsRNA)
RNA 1: GCUAUGUGAGAUUAAGUUAU
RNA 2: UUUUUUUUUUAUAACUUAAUCUCACAUAGC
B1: binds.
